# Publication PMC11032339
# Legend:
# [1] = molecular target: soluble full-length recombinant ADAMTS13 (UniProt Q76LX8); assay: SPR; Biacore T200; ADAMTS13, MDTCS (or fibrinogen) immobilised on CM5 by amine coupling (500-1000 RU); analytes 0-7 µM (or 0-3.5 µM) with 5 mM AEBSF and 10 µM VFKck; 20 mM HEPES-NaOH, 150 mM NaCl, pH 7.4, 0.01% Tween-20, 10 mM CaCl2, 10 µM ZnCl2; 20 µl/min, 25 °C; equilibrium responses fitted to a one-site binding model
# [2] = molecular target: soluble full-length recombinant ADAMTS13 (UniProt Q76LX8)
# fibrinogen = assay: SPR; Biacore T200; ADAMTS13, MDTCS (or fibrinogen) immobilised on CM5 by amine coupling (500-1000 RU); analytes 0-7 µM (or 0-3.5 µM) with 5 mM AEBSF and 10 µM VFKck; 20 mM HEPES-NaOH, 150 mM NaCl, pH 7.4, 0.01% Tween-20, 10 mM CaCl2, 10 µM ZnCl2; 20 µl/min, 25 °C; equilibrium responses fitted to a one-site binding model
# Chain of UniProt Q76LX8 (Q76LX8 75-1427): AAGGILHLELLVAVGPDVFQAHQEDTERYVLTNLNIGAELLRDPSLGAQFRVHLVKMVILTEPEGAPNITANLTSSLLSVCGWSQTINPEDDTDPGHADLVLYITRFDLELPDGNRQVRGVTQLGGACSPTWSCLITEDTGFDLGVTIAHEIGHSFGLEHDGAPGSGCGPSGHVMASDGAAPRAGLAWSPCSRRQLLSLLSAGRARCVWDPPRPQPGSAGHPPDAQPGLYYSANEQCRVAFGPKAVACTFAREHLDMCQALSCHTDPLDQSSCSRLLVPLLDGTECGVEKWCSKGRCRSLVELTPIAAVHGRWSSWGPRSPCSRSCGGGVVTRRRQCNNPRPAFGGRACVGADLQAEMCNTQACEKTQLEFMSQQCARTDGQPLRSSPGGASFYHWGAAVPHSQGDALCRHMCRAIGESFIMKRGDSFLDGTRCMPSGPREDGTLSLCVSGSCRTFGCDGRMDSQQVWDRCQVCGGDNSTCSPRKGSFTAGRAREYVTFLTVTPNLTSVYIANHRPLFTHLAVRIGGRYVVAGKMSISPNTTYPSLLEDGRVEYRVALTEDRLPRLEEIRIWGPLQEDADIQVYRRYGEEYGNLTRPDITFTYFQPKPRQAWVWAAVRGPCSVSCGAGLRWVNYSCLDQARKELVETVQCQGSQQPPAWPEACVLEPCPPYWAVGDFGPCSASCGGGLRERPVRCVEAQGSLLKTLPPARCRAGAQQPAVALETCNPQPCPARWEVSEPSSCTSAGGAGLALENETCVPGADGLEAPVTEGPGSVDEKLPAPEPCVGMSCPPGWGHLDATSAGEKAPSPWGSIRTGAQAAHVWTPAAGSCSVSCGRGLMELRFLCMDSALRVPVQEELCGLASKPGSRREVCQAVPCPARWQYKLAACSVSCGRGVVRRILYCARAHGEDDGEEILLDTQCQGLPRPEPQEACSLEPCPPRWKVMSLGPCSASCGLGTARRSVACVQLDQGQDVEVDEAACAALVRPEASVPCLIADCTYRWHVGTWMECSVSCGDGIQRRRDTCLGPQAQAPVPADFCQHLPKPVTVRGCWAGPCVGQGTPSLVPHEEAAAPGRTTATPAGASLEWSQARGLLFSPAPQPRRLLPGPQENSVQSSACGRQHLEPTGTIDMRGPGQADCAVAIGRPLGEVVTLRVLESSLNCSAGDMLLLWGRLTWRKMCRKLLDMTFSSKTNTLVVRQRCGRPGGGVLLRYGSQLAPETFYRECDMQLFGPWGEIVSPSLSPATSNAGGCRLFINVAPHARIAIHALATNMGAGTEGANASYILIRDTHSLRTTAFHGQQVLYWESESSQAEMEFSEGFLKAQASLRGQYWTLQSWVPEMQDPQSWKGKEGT
Substance,Kd [1] [nM],"rate of degradation of 100 nM ADAMTS13 by 10 nM active plasmin (Prolytix, not VFK-blocked) at 37 °C in the presence of 5 mM TXA; Western blot densitometry of the intact ADAMTS13 band [2] [nM/min]","rate of degradation of 100 nM ADAMTS13 by 10 nM active plasmin (Prolytix, not VFK-blocked) at 37 °C without TXA; Western blot densitometry of the intact ADAMTS13 band [2] [nM/min]",Kd (fibrinogen) [nM]
Glu-plasminogen (natural protein),2800,,,
VFK-plasmin (enzyme),1800,0.05,1.6,

# Results, then the substance that gave them:
Kd [1] [nM],"rate of degradation of 100 nM ADAMTS13 by 10 nM active plasmin (Prolytix, not VFK-blocked) at 37 °C in the presence of 5 mM TXA; Western blot densitometry of the intact ADAMTS13 band [2] [nM/min]","rate of degradation of 100 nM ADAMTS13 by 10 nM active plasmin (Prolytix, not VFK-blocked) at 37 °C without TXA; Western blot densitometry of the intact ADAMTS13 band [2] [nM/min]",Kd (fibrinogen) [nM],Substance
1500,,,,Mini-plasminogen (domain or fragment)
1000,,,,Lys-plasminogen (natural protein)
4000,,,2400,17-kringle form of apolipoprotein(a) (natural protein)
